In patent publication US20060257938A1, “Method of screening for drugs that block ligand binding to a lipid binding protein” (priority 2005, published 2006):
Several values for one entry are separate records, joined by “and”; a condition that tells them apart may be missing. Equal values may be shown once.

Assays:
Assay type in all cases: binding
Conditions in all cases: response relative to ADIFAB2
[1] = Probe fluorescence ratio response to arachidonic acid relative to ADIFAB2
In short: (§1)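 Fluorescently labeled rat intestinal FABP variants were read at two emission wavelengths, near the unbound maximum (about 420 to 480 nm) and the FFA-bound maximum (about 495 to 580 nm). R = Fλ1/Fλ2 after subtracting probe-free intensity; ΔR = R+agent − R0, normalized to ADIFAB2 (rI-FABP-L72A).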

[2] = Probe fluorescence ratio response to linolenic acid relative to ADIFAB2
In short: as §1

[3] = Probe fluorescence ratio response to linoleic acid relative to ADIFAB2
In short: as §1

[4] = Probe fluorescence ratio response to oleic acid relative to ADIFAB2
In short: as §1

[5] = Probe fluorescence ratio response to palmitic acid relative to ADIFAB2
In short: as §1

B1: 55N1, 72A (protein, listed as Rattus norvegicus)
chain: AFDGTWKVDRNENYEKFMEKMGINVVKRKLGAHDNLKLTITQEGNKFTVKESSNNRNIDVVFELGVDFAYSAADGTELTGTWTMEGNKLVGKFKRVDNGKELIAVREISGNELIQTYTYEGVEAKRIFKKE
modifications: PEPTIDE (1)...(131) wild-type rat intestinal fatty acid binding protein
[1]; Arachidonic acid
  DR/DR AA: 0.34
[2]
  DR/DR LNA: 0.30
[3]
  DR/DR LA: 0.29
[4]
  DR/DR OA: 0.27
[5]
  DR/DR PA: 0.22

B2: 55P1, 72A (protein, listed as Rattus norvegicus)
chain: AFDGTWKVDRNENYEKFMEKMGINVVKRKLGAHDNLKLTITQEGNKFTVKESSNPRNIDVVFELGVDFAYSAADGTELTGTWTMEGNKLVGKFKRVDNGKELIAVREISGNELIQTYTYEGVEAKRIFKKE
modifications: PEPTIDE (1)...(131) wild-type rat intestinal fatty acid binding protein
[1]; Arachidonic acid
  DR/DR AA: 1.01
[2]
  DR/DR LNA: 0.96
[3]
  DR/DR LA: 1.05
[4]
  DR/DR OA: 0.93
[5]
  DR/DR PA: 0.54

B3: 55Q1, 72A (protein, listed as Rattus norvegicus)
chain: AFDGTWKVDRNENYEKFMEKMGINVVKRKLGAHDNLKLTITQEGNKFTVKESSNQRNIDVVFELGVDFAYSAADGTELTGTWTMEGNKLVGKFKRVDNGKELIAVREISGNELIQTYTYEGVEAKRIFKKE
modifications: PEPTIDE (1)...(131) wild-type rat intestinal fatty acid binding protein
[1]; Arachidonic acid
  DR/DR AA: 0.60
[2]
  DR/DR LNA: 0.49
[3]
  DR/DR LA: 0.47
[4]
  DR/DR OA: 0.54
[5]
  DR/DR PA: 0.43

B4: 55R1, 72A (protein, listed as Rattus norvegicus)
chain: AFDGTWKVDRNENYEKFMEKMGINVVKRKLGAHDNLKLTITQEGNKFTVKESSNRRNIDVVFELGVDFAYSAADGTELTGTWTMEGNKLVGKFKRVDNGKELIAVREISGNELIQTYTYEGVEAKRIFKKE
modifications: PEPTIDE (1)...(131) wild-type rat intestinal fatty acid binding protein
[1]; Arachidonic acid
  DR/DR AA: 0.40
[2]
  DR/DR LNA: 0.37
[3]
  DR/DR LA: 0.41
[4]
  DR/DR OA: 0.39
[5]
  DR/DR PA: 0.30

B5: 55S1, 72A (protein, listed as Rattus norvegicus)
chain: AFDGTWKVDRNENYEKFMEKMGINVVKRKLGAHDNLKLTITQEGNKFTVKESSNSRNIDVVFELGVDFAYSAADGTELTGTWTMEGNKLVGKFKRVDNGKELIAVREISGNELIQTYTYEGVEAKRIFKKE
modifications: PEPTIDE (1)...(131) wild-type rat intestinal fatty acid binding protein
[1]; Arachidonic acid
  DR/DR AA: 0.48
[2]
  DR/DR LNA: 0.43
[3]
  DR/DR LA: 0.42
[4]
  DR/DR OA: 0.41
[5]
  DR/DR PA: 0.41

B6: 55T1, 72A (protein, listed as Rattus norvegicus)
chain: AFDGTWKVDRNENYEKFMEKMGINVVKRKLGAHDNLKLTITQEGNKFTVKESSNTRNIDVVFELGVDFAYSAADGTELTGTWTMEGNKLVGKFKRVDNGKELIAVREISGNELIQTYTYEGVEAKRIFKKE
modifications: PEPTIDE (1)...(131) wild-type rat intestinal fatty acid binding protein
[1]; Arachidonic acid
  DR/DR AA: 1.26
[2]
  DR/DR LNA: 1.27
[3]
  DR/DR LA: 1.25
[4]
  DR/DR OA: 1.28
[5]
  DR/DR PA: 1.12

B7: 55W2, 72A (protein, listed as Rattus norvegicus)
chain: AFDGTWKVDRNENYEKFMEKMGINVVKRKLGAHDNLKLTITQEGNKFTVKESSNWRNIDVVFELGVDFAYSAADGTELTGTWTMEGNKLVGKFKRVDNGKELIAVREISGNELIQTYTYEGVEAKRIFKKE
modifications: PEPTIDE (1)...(131) wild-type rat intestinal fatty acid binding protein
[1]; Arachidonic acid
  DR/DR AA: 0.77
[2]
  DR/DR LNA: 0.82
[3]
  DR/DR LA: 0.79
[4]
  DR/DR OA: 0.70
[5]
  DR/DR PA: 0.63

B8: 55Y3, 72A (protein, listed as Rattus norvegicus)
chain: AFDGTWKVDRNENYEKFMEKMGINVVKRKLGAHDNLKLTITQEGNKFTVKESSNYRNIDVVFELGVDFAYSAADGTELTGTWTMEGNKLVGKFKRVDNGKELIAVREISGNELIQTYTYEGVEAKRIFKKE
modifications: PEPTIDE (1)...(131) wild-type rat intestinal fatty acid binding protein
[1]; Arachidonic acid
  DR/DR AA: 0.47
[2]
  DR/DR LNA: 0.34
[3]
  DR/DR LA: 0.32
[4]
  DR/DR OA: 0.33
[5]
  DR/DR PA: 0.25

B9: 60A, 72A (protein, listed as Rattus norvegicus)
chain: AFDGTWKVDRNENYEKFMEKMGINVVKRKLGAHDNLKLTITQEGNKFTVKESSNFRNIDAVFELGVDFAYSAADGTELTGTWTMEGNKLVGKFKRVDNGKELIAVREISGNELIQTYTYEGVEAKRIFKKE
modifications: PEPTIDE (1)...(131) wild-type rat intestinal fatty acid binding protein
[1]; Arachidonic acid
  DR/DR AA: 0.79
[1]; arachidonic acid
  DR/DR AA: 0.787
[2]
  DR/DR LNA: 0.94 and 0.938
[3]
  DR/DR LA: 0.98 and 0.977
[4]
  DR/DR OA: 0.94 and 0.936
[5]
  DR/DR PA: 0.74 and 0.742

B10: 60C, 72A (protein, listed as Rattus norvegicus)
chain: AFDGTWKVDRNENYEKFMEKMGINVVKRKLGAHDNLKLTITQEGNKFTVKESSNFRNIDCVFELGVDFAYSAADGTELTGTWTMEGNKLVGKFKRVDNGKELIAVREISGNELIQTYTYEGVEAKRIFKKE
modifications: PEPTIDE (1)...(131) wild-type rat intestinal fatty acid binding protein
[1]; Arachidonic acid
  DR/DR AA: 1.30
[2]
  DR/DR LNA: 1.36
[3]
  DR/DR LA: 1.33
[4]
  DR/DR OA: 1.34
[5]
  DR/DR PA: 1.04

B11: 60F, 72A (protein, listed as Rattus norvegicus)
chain: AFDGTWKVDRNENYEKFMEKMGINVVKRKLGAHDNLKLTITQEGNKFTVKESSNFRNIDFVFELGVDFAYSAADGTELTGTWTMEGNKLVGKFKRVDNGKELIAVREISGNELIQTYTYEGVEAKRIFKKE
modifications: PEPTIDE (1)...(131) wild-type rat intestinal fatty acid binding protein
[1]; Arachidonic acid
  DR/DR AA: 1.79
[1]; arachidonic acid
  DR/DR AA: 1.792
[2]
  DR/DR LNA: 1.76 and 1.762
[3]
  DR/DR LA: 1.68 and 1.684
[4]
  DR/DR OA: 1.90 and 1.896
[5]
  DR/DR PA: 1.53 and 1.526

B12: 60G, 72A (protein, listed as Rattus norvegicus)
chain: AFDGTWKVDRNENYEKFMEKMGINVVKRKLGAHDNLKLTITQEGNKFTVKESSNFRNIDGVFELGVDFAYSAADGTELTGTWTMEGNKLVGKFKRVDNGKELIAVREISGNELIQTYTYEGVEAKRIFKKE
modifications: PEPTIDE (1)...(131) wild-type rat intestinal fatty acid binding protein
[1]; Arachidonic acid
  DR/DR AA: 0.29
[2]
  DR/DR LNA: 0.24
[3]
  DR/DR LA: 0.25
[4]
  DR/DR OA: 0.24
[5]
  DR/DR PA: 0.19

B13: 60H, 72A (protein, listed as Rattus norvegicus)
chain: AFDGTWKVDRNENYEKFMEKMGINVVKRKLGAHDNLKLTITQEGNKFTVKESSNFRNIDHVFELGVDFAYSAADGTELTGTWTMEGNKLVGKFKRVDNGKELIAVREISGNELIQTYTYEGVEAKRIFKKE
modifications: PEPTIDE (1)...(131) wild-type rat intestinal fatty acid binding protein
[1]; Arachidonic acid
  DR/DR AA: 0.17
[2]
  DR/DR LNA: 0.18
[3]
  DR/DR LA: 0.17
[4]
  DR/DR OA: 0.17
[5]
  DR/DR PA: 0.12

B14: 60I, 72A (protein, listed as Rattus norvegicus)
chain: AFDGTWKVDRNENYEKFMEKMGINVVKRKLGAHDNLKLTITQEGNKFTVKESSNFRNIDIVFELGVDFAYSAADGTELTGTWTMEGNKLVGKFKRVDNGKELIAVREISGNELIQTYTYEGVEAKRIFKKE
modifications: PEPTIDE (1)...(131) wild-type rat intestinal fatty acid binding protein
[1]; Arachidonic acid
  DR/DR AA: 1.54
[1]; arachidonic acid
  DR/DR AA: 1.539
[2]
  DR/DR LNA: 1.63 and 1.632
[3]
  DR/DR LA: 1.73
[4]
  DR/DR OA: 1.72 and 1.723
[5]
  DR/DR PA: 1.52

B15: 60K, 72A (protein, listed as Rattus norvegicus)
chain: AFDGTWKVDRNENYEKFMEKMGINVVKRKLGAHDNLKLTITQEGNKFTVKESSNFRNIDKVFELGVDFAYSAADGTELTGTWTMEGNKLVGKFKRVDNGKELIAVREISGNELIQTYTYEGVEAKRIFKKE
modifications: PEPTIDE (1)...(131) wild-type rat intestinal fatty acid binding protein
[1]; Arachidonic acid
  DR/DR AA: 0.46
[1]; arachidonic acid
  DR/DR AA: 0.461
[2]
  DR/DR LNA: 0.57 and 0.582
[3]
  DR/DR LA: 0.62 and 0.619
[4]
  DR/DR OA: 0.60 and 0.626
[5]
  DR/DR PA: 0.35 and 0.310

B16: 60L, 72A (protein, listed as Rattus norvegicus)
chain: AFDGTWKVDRNENYEKFMEKMGINVVKRKLGAHDNLKLTITQEGNKFTVKESSNFRNIDLVFELGVDFAYSAADGTELTGTWTMEGNKLVGKFKRVDNGKELIAVREISGNELIQTYTYEGVEAKRIFKKE
modifications: PEPTIDE (1)...(131) wild-type rat intestinal fatty acid binding protein
[1]; Arachidonic acid
  DR/DR AA: 1.08
[1]; arachidonic acid
  DR/DR AA: 1.075
[2]
  DR/DR LNA: 1.26
[3]
  DR/DR LA: 1.29 and 1.285
[4]
  DR/DR OA: 1.27 and 1.272
[5]
  DR/DR PA: 1.10 and 1.095

B17: 60M, 72A (protein, listed as Rattus norvegicus)
chain: AFDGTWKVDRNENYEKFMEKMGINVVKRKLGAHDNLKLTITQEGNKFTVKESSNFRNIDMVFELGVDFAYSAADGTELTGTWTMEGNKLVGKFKRVDNGKELIAVREISGNELIQTYTYEGVEAKRIFKKE
modifications: PEPTIDE (1)...(131) wild-type rat intestinal fatty acid binding protein
[1]; Arachidonic acid
  DR/DR AA: 0.77
[2]
  DR/DR LNA: 0.93
[3]
  DR/DR LA: 1.01
[4]
  DR/DR OA: 0.91
[5]
  DR/DR PA: 0.76
